Patent US20070110818A1, “Milk fractions and milk preparations for treating and/or preventing cox-2 mediated diseases” (priority 2003, published 2007)

Molecular target: T1, COX-2 (Homo sapiens, UniProt P35354)
T1 construct: treated with 100 nM (nmol/l) phorbol 12-myristate 13-acetate for 6 h at 37° C. to induce COX-2 isoenzyme; endogenous in cells; host or cells: HUV-EC-C (ATCC CRL1730), PMA-induced
T1 sequence (P35354 18-604): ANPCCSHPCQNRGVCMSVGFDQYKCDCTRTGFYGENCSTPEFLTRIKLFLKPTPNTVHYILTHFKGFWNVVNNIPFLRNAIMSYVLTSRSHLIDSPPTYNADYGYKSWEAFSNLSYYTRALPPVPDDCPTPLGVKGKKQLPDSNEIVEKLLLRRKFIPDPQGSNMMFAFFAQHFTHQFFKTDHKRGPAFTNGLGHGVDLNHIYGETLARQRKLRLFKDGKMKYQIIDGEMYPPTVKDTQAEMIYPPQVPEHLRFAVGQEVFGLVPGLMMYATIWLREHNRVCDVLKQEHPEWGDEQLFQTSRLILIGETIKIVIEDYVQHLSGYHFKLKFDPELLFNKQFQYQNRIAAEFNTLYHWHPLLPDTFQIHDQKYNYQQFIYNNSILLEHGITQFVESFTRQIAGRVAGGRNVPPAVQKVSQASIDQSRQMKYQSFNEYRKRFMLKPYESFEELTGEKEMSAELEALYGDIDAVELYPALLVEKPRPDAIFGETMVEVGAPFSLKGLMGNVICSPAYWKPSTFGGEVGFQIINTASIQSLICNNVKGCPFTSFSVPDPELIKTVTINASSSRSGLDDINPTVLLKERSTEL
Assay: COX-2 screening in PMA-induced HUV-EC-C cells (Prostaglandine-E2 production by RIA)
Assay type: cell-based
Description: HUV-EC-C cells (a permanent endothelial cell line derived from the vein of a normal human umbilical cord; ATCC CRL1730; M. Miralpeix, M. Camacho et al., Brit. J. Pharmacol. 121 (1997), 171-180), were seeded onto 96-well plates (RPMI 1640+10% FCS) and treated with 100 nM (nmol/l) phorbol 12-myristate 13-acetate for 6 h at 37° C. to induce COX-2 isoenzyme. 50 μM (μmol/l) arachidonic acid were then added and the cells were incubated in the presence of test compounds or mixtures for 30 min at 37° C. Prostaglandine-E2 production was measured by radioimmuno assay (RIA) and the radioactivity determined with a scintillation counter (Topcount, Packard) using a liquid scintillation cocktail (Packard).
The results obtained are expressed as a percent of control values and as a percent inhibition of control values obtained in the presence of the test compounds. The control values correspond to the COX-2 activity of HUV-EC-C cells after stimulation with Phorbol Myristate Acetate (PMA) during 6 hours at 37° C. (can be done also with Tumor Necrosis Factor type alpha: TNFα) in absence of test compound.
The concentration causing a half-maximal inhibition of control values (IC50 value) and Hill coefficients (nH) were determined for the reference compounds (cycloheximide) by nonlinear regression analysis of their inhibition curves. These parameters were obtained by Hill equation curve fitting. […]

B1: Lactoferrin (protein, UniProt P02788 20-710, looked up)
Lactotransferrin: GRRRSVQWCAVSQPEATKCFQWQRNMRKVRGPPVSCIKRDSPIQCIQAIAENRADAVTLDGGFIYEAGLAPYKLRPVAAEVYGTERQPRTHYYAVAVVKKGGSFQLNELQGLKSCHTGLRRTAGWNVPIGTLRPFLNWTGPPEPIEAAVARFFSASCVPGADKGQFPNLCRLCAGTGENKCAFSSQEPYFSYSGAFKCLRDGAGDVAFIRESTVFEDLSDEAERDEYELLCPDNTRKPVDKFKDCHLARVPSHAVVARSVNGKEDAIWNLLRQAQEKFGKDKSPKFQLFGSPSGQKDLLFKDSAIGFSRVPPRIDSGLYLGSGYFTAIQNLRKSEEEVAARRARVVWCAVGEQELRKCNQWSGLSEGSVTCSSASTTEDCIALVLKGEADAMSLDGGYVYTAGKCGLVPVLAENYKSQQSSDPDPNCVDRPVEGYLAVAVVRRSDTSLTWNSVKGKKSCHTAVDRTAGWNIPMGLLFNQTGSCKFDEYFSQSCAPGSDPRSNLCALCIGDEQGENKCVPNSNERYYGYTGAFRCLAENAGDVAFVKDVTVLQNTDGNNNEAWAKDLKLADFALLCLDGKRKPVTEARSCHLAMAPNHAVVSRMDKVERLKQVLLHQQAKFGRNGSDCPDKFCLFQSETKNLLFNDNTECLARLHGKTTYEKYLGPQYVAGITNLKKCSTSPLLEACEFLRK
cyclooxygenase-2 inhibiting activity (in words): not to have any cyclooxygense-2 inhibiting activity
